The values below come from the nanobody polyreactivity screen of Harvey et al. (2022).

The nature of this data set: yeast display, Sf9 membrane polyspecificity reagent, FACS + sequencing; frameworks hold sequencing errors. Put shortly: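 A synthetic nanobody library was expressed on Saccharomyces cerevisiae BJ5465 by galactose induction for 36–48 hours. The library was stained for 1 hour at 4 °C with 10% biotinylated, detergent-solubilized Sf9 membrane reagent and enriched with streptavidin microbeads before FACS. Low and high (top ~1%) gates were set on anti-HA fluorescence for expression and streptavidin fluorescence for reagent binding, and each polyreactivity label reflects the gate of origin.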
On to “QVQLVESGGGLVQAGGSLRLSCAPSGSTFRYNAMGWYRQAPGKERELVAAITFSGDSTSYADSVKGRFTISRDNAKNTVYLQMNSLKPEDTAVYYCAVDTWNGDGSGYSLEFEYWGQGTQVTVSS”, for which the “polyreactivity (PSR sort gate)” value is on record as “low polyreactivity”.
As to “QVQLVESGGGLVQAGGSLRLSCAPSGSTFYKYVMGWYRQAPGKERELVAAISQGGSSTYYADSVKGRFTISRDNAKYTVYVLMNSLKPEDTAVYYCAAQYWWWSRFEYDSWGQGTQVTVSS”, the “polyreactivity (PSR sort gate)” value was “low polyreactivity”.
“QVQLVESGGGLVQAGGSLRLSCAPSGTTFTRNAMGWYREAPGKERELVAAISFSGGSTYYADSVKGRFTISRDNAKNTVYIQMNSLKPEDTAVYYCATKVEYRYYYWGQGTQVTVSS”: the “polyreactivity (PSR sort gate)” value is “high polyreactivity”.
The value for “QVQLVESGGGLVQAGGSLRLSCAPSGYIFYDNAMGWYRQAPGKEREFVAAITFSGDSTDYADSVKGRFTISRDNAKNTVYLQMNSLKPEDTAVYYFNTVYYRYYIELYFSSYDYWGQGTQVTVSS” was “high polyreactivity”; that for “QVQLVESGGGLVQAGGSLRLSCAPTGFIFFTYAMGWYRQAPGKERELVAAISQSGASTYYADSVKGRFTISRDNAKKTVYLQMNSLKPEDSAVDYCAATYSFRYWIQRYNYWGQGTQVTVSS” was “low polyreactivity”.
Take “QVQLVESGGGLVQAGGSLRLSCASSGFIFFSYAMGWYRQAPGKERELVASISRSGGTTYYADSVKGRFTISRDNAKNTVYLQMNSLKPEDTAVYYCAARTYSYYSRDYWGQVTQVTVSS”: the “polyreactivity (PSR sort gate)” value is on record as “high polyreactivity”.
“QVQLVESGGGLVQAGGSLRLSCASSGFIFHHYGMGRSRQAPGKERELVAGDTHYADSVKGRFTISRDNAKNTVYLQMNSLKPEDTAVYYCNAYWKDDFEDGPGRRGMDYWGQGTLVTVSS”: the “polyreactivity (PSR sort gate)” value was “low polyreactivity”.
Turning to “QVQLVESGGGLVQAGGSLRLSCASSGFIFRWYTMGWYRQAPGKERELVAAISWSSGSTSYADSVKGRFTISRDNAKNTVYLQMNSLKPEDTAVYYCAAVWRTASTQYYYWGQGTQVTVSS”, the “polyreactivity (PSR sort gate)” value is “high polyreactivity”.
Regarding “QVQLVESGGGLVQAGGSLRLSCASSGFIFRYYAMGWYRQAPGKERELVAAISWRGDSTSYADSVKGRFTISRDNAKYTVYLQMNSLKPEDTAVYYCAAGRYLAYLYWGRYEYYYWGQGTQVTVSS”, the “polyreactivity (PSR sort gate)” value was “low polyreactivity”.
Then “QVQLVESGGGLVQAGGSLRLSCASSGFIFVNYAMEWYRQAPGKERELVAAISRNGGRTYYADSVKGRFTISRDNAKNTVYFQMNSLKPEDTAVYYCTAELSGKRDYWGQGTQVTVSS”, with “high polyreactivity”; and “QVQLVESGGGLVQAGGSLRLSCASSGFILDYNAMGWYRQAPGKERQLVATITGRGDRTYYADSVKGRFTISRDNAKNTVYLQMNSLKPEDTAVYYCAAGFDGSSHPGFDSWGQGTQVTVSS”, with “low polyreactivity”; and “QVQLVESGGGLVQAGGSLRLSCASSGFTFDPYAMGWYRQAPGKERELVAAISWSGGSTYYADSVKGRFTISRDNAKNTVYLQMNSLKPEDTAVYYCAAEWYNSAYYEYDYWGQGTQVTVSS”, with “high polyreactivity”.
On to “QVQLVESGGGLVQAGGSLRLSCASSGFTFSDYAMAWYRQAPGKERELVADISTSGGSTYYADSVKGRFTISRDNAKNTVYLQMNSLKPEDTAVYYCAVRPGYYWGYWPRFGYWGQGTQVTVSS”, for which the “polyreactivity (PSR sort gate)” value is reported as “low polyreactivity”.
With “QVQLVESGGGLVQAGGSLRLSCASSGFTFWYTMGWYRQAPGKEREFVAAITSGGGRTYYADSVKGRFTISRDNAKNTVYLQMNSLKPEETAVYYSAADSYYSWYDYWVQGTQVTVSS”, the “polyreactivity (PSR sort gate)” value is listed as “high polyreactivity”.
The value for “QVQLVESGGGLVQAGGSLRLSCASSGHIFIGNAMGWYRQAPGKERELVAAISRGGGRTYYADSVKGRFTISRDNAKNTVFLQMNILKPEDTAVYYCATVGQGPTKTPAGRYDYWGQGTQVTVSS” was “high polyreactivity”.
Turning to “QVQLVESGGGLVQAGGSLRLSCASSGIIFGGNAMGWYRQAPGKERELVATISNGGSTKYADSVKGRFTISRDNAKNTVYLQMNSLKPEDTAVYYCAAQPRVGSYVRSSRGRYNHWGQGTQVTVSS”, the “polyreactivity (PSR sort gate)” value was “high polyreactivity”.
With “QVQLVESGGGLVQAGGSLRLSCASSGITFGYYAMGWYRQAPGKESELGAARSGSGGSTYYADSVKGRFTISRDNAKNTVSLQMNSLKPEDTAVYDCAAEGPSNTLYWFSWEDYWGQGTQVTVSS”, the “polyreactivity (PSR sort gate)” value is recorded as “high polyreactivity”.
In the case of “QVQLVESGGGLVQAGGSLRLSCASSGITFNLNDMGWYRQAPGKERELVAAITSGGNTSYADSVKGRFTISRDNAKNTVYLQMNSLKPEDTAVYYCATEDFRTDTGMYYWGQGTQVTVSS”, the “polyreactivity (PSR sort gate)” value is recorded as “low polyreactivity”.
The value for “QVQLVESGGGLVQAGGSLRLSCASSGITFVVNAMVWYRQAPGKEREFVAAIDVRGGTTYYADSVKGRFTISRDNAKNSVYLQMNSLKPEDTAVYYCAASSTSGYDWGQGTQVTVSS” was “low polyreactivity”; that for “QVQLVESGGGLVQAGGSLRLSCASSGLIFPFYDMGWYRQAPGKERELVAAMTRSGDSTYYADSVKGRFTISRDNAKNTVYLQMNSLKPEDTAVSYCAAQPGTASYAGDGDSWGQGTQVTVSS” was “low polyreactivity”; that for “QVQLVESGGGLVQAGGSLRLSCASSGLIYHRNAMGWYRQAPGKERELVAAITKTGGGTYYADSVKGRFTISRDNAKNTVYLQMNSLKPEDTAVYYCAADTQRTFYYWGQGTQVTVSS” was “low polyreactivity”.
Consider “QVQLVESGGGLVQAGGSLRLSCASSGNIFVAYAMGWYRQAPGKERELVAAITSGGRTYADSVKGRFTISRDNAKNTVYLQMNSLKPEDTAVYYCNADPYYVYLGYYDRYYSGYGYWGQGTQVTVSS”, for which the “polyreactivity (PSR sort gate)” value is on record as “low polyreactivity”.
Consider “QVQLVESGGGLVQAGGSLRLSCASSGNTFKTNAMGWYRQAPGKERELVAAISSSGSTYYADSVKGRFTISRDNAKNTVYLQMNSLKPEDTAVYYCAVTYRRFYYWGQGTQVTVSS”, for which the “polyreactivity (PSR sort gate)” value is on record as “high polyreactivity”.
Take “QVQLVESGGGLVQAGGSLRLSCASSGRIFFMYAMGWYIQAPGKERELVAAINKSGGSTYADSVKGRFTISRDNANNTVYLQMNSLKPEDTAVYYCATENTDSGESVYIVKYGSDYWGQGTQVTVSS”: the “polyreactivity (PSR sort gate)” value is “low polyreactivity”.
“QVQLVESGGGLVQAGGSLRLSCASSGRIFGSYAMGWYRQAPGKERELVAGIRSVGSTNYADSVKGRFTISRDNAKNTVFLQINSLKPEDTAVYYCAARLWHLSYAGQGGDYWGQVTQVTVSS”: the “polyreactivity (PSR sort gate)” value is given as “low polyreactivity”.
Consider “QVQLVESGGGLVQAGGSLRLSCASSGRIFYSYAMGWYRQAPGKERELVAAITVSGGSTFYADSVKGRFTISRDNAKNTVYLQMNSLKPEDTAVYYCAAQSTTIEDGWYVEYNYWGQGTQVTVSS”, for which the “polyreactivity (PSR sort gate)” value is “high polyreactivity”.
In the case of “QVQLVESGGGLVQAGGSLRLSCASSGRIIINYDMGWYRQAPGKEIELVAAITWSTGSTYADSVKGRFTISRDNAKNTVYLQMNSLKPEDTAVYYCAAPWGQTDDRHQGGDYWGQGTQVTVSS”, the “polyreactivity (PSR sort gate)” value is “low polyreactivity”.
As to “QVQLVESGGGLVQAGGSLRLSCASSGRTFLGYAMGWYRQAPGKERELVAAISYSGSSTYYADSVKGRFTISRDNAKNTVYLQMNSLKPEDTAVYYCAAQFYFLFDYWGQGTQVTVSS”, the “polyreactivity (PSR sort gate)” value is given as “low polyreactivity”.
On to “QVQLVESGGGLVQAGGSLRLSCASSGRTFTPYAMGWSTQAPGKERELVAAISRRAGTTYYADSVKGRFTISRDKAKNYGFLQMNRLKPEETEVYYCAALTESSSYGYWGQGTQVNVSS”, for which the “polyreactivity (PSR sort gate)” value is recorded as “low polyreactivity”.
Take “QVQLVESGGGLVQAGGSLRLSCASSGRTFTYYTMGWYRQAPGKERELVAAISSSGGSTYYADSVKGRFTISRDNAKNTVYLQMNSLKPEDTAVYYCAAVRGRLLPPYGYWGQGTQVTVSS”: the “polyreactivity (PSR sort gate)” value is “high polyreactivity”.
As for “QVQLVESGGGLVQAGGSLRLSCASSGRTFVSNAKGWYRQAPGKERELVAVITGIGGNTYYADSVKGRFTISRDNAKNSDYLQMNSLKPEDTAVYYCAADISLVSYYYWGQGTQVTVSS”, the “polyreactivity (PSR sort gate)” value is on record as “low polyreactivity”.
The value for “QVQLVESGGGLVQAGGSLRLSCASSGRTSLGYVMGWYRQAPGKERELVAAITKSGGSTYYADSVKGRFTISRDNAKNTVYLQMNSQKPEDTAVYYCAARNPWSARYEYWGQGTQVTVSS” was “high polyreactivity”.
Then “QVQLVESGGGLVQAGGSLRLSCASSGSIFALNAMGWYRQAPGKERELVAAISSSGGNTYYADSVKGRFTISRDNAKNTVYLQMNSLKPEDTAVYYCNRVAYRNDFDYWGQGTQVTVSS”, with “low polyreactivity”; and “QVQLVESGGGLVQAGGSLRLSCASSGSIFPAYAMGWYRQAPGKERELVAAISSRGGSTYYADSVKGRFTISRDNAKNTVYLQMNSLKPEDTAVYYCAASRWLYYYLFEYWGQGTQVTVSS”, with “high polyreactivity”.
Turning to “QVQLVESGGGLVQAGGSLRLSCASSGSIFSKYAMGWYRQAPGKERELVAAITLNGGSTYYADSVKGRFTISRDNAKNTVYLQMNSLKPEDTAVYYCAKSDRPWWGYYYSWGQGSQVTVSS”, the “polyreactivity (PSR sort gate)” value was “low polyreactivity”.
In the case of “QVQLVESGGGLVQAGGSLRLSCASSGSIFVANAMGWYRQAPGKERELVAAISVRGGRTYYADSVKGRFTISRDNAKNTVYLQMNSLKPEDTAVYYCARVLRSDVADYDYWGQGTQVSVSS”, the “polyreactivity (PSR sort gate)” value was “high polyreactivity”.
Take “QVQLVESGGGLVQAGGSLRLSCASSGSILWLNAMGWYRQAPGKERDLVAAITSRGGSTYYADSVKGRYTITRDNANNTVYLQMNSLKPEDTAVYYCATRSSRGSGSRFDYWGQGTQVTVSS”: the “polyreactivity (PSR sort gate)” value is “high polyreactivity”.
On to “QVQLVESGGGLVQAGGSLRLSCASSGSTFAIYAMGWYRQAPGKESELVAAITRSGGNAYYADSVKGRFTISRDNAKNTVYLQMNSLKPEDTAVYYCNAETYYWSAYAQYDYWGQGTQVTVSS”, for which the “polyreactivity (PSR sort gate)” value is given as “high polyreactivity”.
Turning to “QVQLVESGGGLVQAGGSLRLSCASSGSTFDYYMGWYRHAPGKERELVAAITYSGGSTYYADSVKGRFTISRDNAKNTVYLQMKSLKPEDTAVYYCAKDRSTFDDFYSNYYWGQGTQVTVSS”, the “polyreactivity (PSR sort gate)” value was “low polyreactivity”.
On to “QVQLVESGGGLVQAGGSLRLSCASSGSTFLAYAMGWDRQAPGKERELVAAISSRGSRTYYADSLKGRCTISRDTAKNTVYLQMNSLKPEDTAVYYCAARYPSGYYYWGQGTQVTVSS”, for which the “polyreactivity (PSR sort gate)” value is reported as “high polyreactivity”.
Regarding “QVQLVESGGGLVQAGGSLRLSCASSGSTFSANTKGWYRQAPGKERELVAAINSSGGSSTYYADSVKGRFTISRDNAKNTVYLQMKSLKPEDTAVYYCAAENSVPRGVLGGEFDYWGQGTQVTVSS”, the “polyreactivity (PSR sort gate)” value is reported as “low polyreactivity”.
